Test results taken from PMC12562432, “G4 Oligonucleotide-Based Chaperones of Heterogeneous Nuclear Ribonucleoprotein A1”.

Molecular target: hnRNP A1 (UniProt P09651 1-251+304-372, internal_change)
Experiment: MST; 150 mM KCl; MST: 100 nM RED-labelled hnRNP A1, oligonucleotide titrated, 10 min incubation, working buffer with 150 mM KCl (40 mM HEPES-KOH pH 7.0 stated for the other assays); Hill model; temperature not stated
Conditions: tags: RED dye label (MST); parallel G4 loop on short duplex stem GCUGC/GCAGC, 5' single-stranded UCAGUU

Sequence of hnRNP A1 (P09651 other isoform, or with tags, fused parts or gaps): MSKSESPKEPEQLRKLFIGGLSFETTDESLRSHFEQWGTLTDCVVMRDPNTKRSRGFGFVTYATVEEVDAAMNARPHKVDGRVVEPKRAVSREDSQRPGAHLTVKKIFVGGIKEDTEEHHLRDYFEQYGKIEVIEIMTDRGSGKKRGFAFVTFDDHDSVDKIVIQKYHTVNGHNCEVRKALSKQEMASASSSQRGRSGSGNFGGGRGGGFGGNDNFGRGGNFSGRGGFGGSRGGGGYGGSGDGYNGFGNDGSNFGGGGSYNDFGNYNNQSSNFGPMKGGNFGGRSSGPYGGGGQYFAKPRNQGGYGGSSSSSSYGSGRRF

B1: chap-RNA (structured_RNA)
RNA: UCAGUUGCUGCGGGUGGGUGGGUGGGGCAGC
  Kd: 6 ± 1 µM
